From the supplement of paper PMC10567573
± gives the standard deviation.

Experiment: protein stability index of a GFP-peptide fusion (GPS, HEK-293T) (PSI 1-6); higher = more stable
[1] = treatment: DMSO, c terminus: a fixed tail appended
[2] = treatment: MLN4924 1 uM, 8 h, c terminus: a fixed tail appended
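Further: 24-mer peptide tiles fused after GFP, lentivirally expressed, FACS-sorted into six equal bins by GFP/DsRed ratio, decoded by Illumina sequencing, PSI is the read-weighted mean bin number.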

Row | Sequence | protein stability index (treatment: DMSO, c terminus: native) | protein stability index (treatment: MLN4924 1 uM, 8 h, c terminus: native) | protein stability index [1] | protein stability index [2]
1 | AGHCSASPGPAAPTARMPGRLRG | 3 ± 0.6 | 2.93 ± 0.73 |  | 
2 | SQYQCENGVSGPSQDLLPPPNPYP [TBX5] |  |  | 4.75 ± 0.16 | 4.64 ± 0.14
3 | QDSSVTSKRNIKKGAVPRSIPNLA [HDAC6] |  |  | 4.17 ± 0.26 | 4.21 ± 0.41
4 | MFLQLVPSWNGSLKQLLTETDVWF [GMCL1] |  |  | 3.13 ± 0.68 | 2.56 ± 1.3
5 | MGWEGPNSRVDDTFWASWRAFAQI [MIR22HG] |  |  | 2.45 ± 0.28 | 2.21 ± 0.17
6 | PGRREGCDICAGKAGCPIVEEPLG [RPS21] |  |  | 4.09 ± 0.33 | 4.25 ± 0.072
7 | QVNRRSAKGNTALHDCAESGSLEI [FEM1A] |  |  | 4.56 ± 0.049 | 4.26 ± 0.21
8 | AFLEPDETFIVPDSFLVALDMDDG [SPSB1] |  |  | 3.46 ± 0.25 | 3.65 ± 0.48
9 | PQYTIRCRPLQFQPSKSHKKVLKK [ATE1] |  |  | 3.6 ± 0.09 | 3.88 ± 0.3
10 | VQLQRIPLSAVYRICLGKFTFPGM [TPRG1] |  |  | 2.65 ± 0.69 | 2.21 ± 0.43
11 | ESAKDWETSPLPGMLAPAAGPAFD [PPFIA4] |  |  | 4.62 ± 0.076 | 4.61 ± 0.33
12 | DPCVISQEIMEKYNIKLKWTNQQK [CFHR2] |  |  | 3.19 ± 0.22 | 2.92 ± 0.22
13 | MNKGDTEVMKCIVEVISDTLSKPS [CHGA] |  |  | 2.84 ± 0.3 | 2.86 ± 0.31
14 | PLMQGPRTRPRKPIRCGEVLFAVG [KLHL20] |  |  | 2.23 ± 0.33 | 1.92 ± 0.5
15 | ECEEGELSFYDAERHCHLYTFHAR [TRIM35] |  |  | 3.18 ± 0.27 | 3.21 ± 0.24
16 | QEAMFNMATLNRTAAGLMHTFNAH [SEPHS2] |  |  | 2.44 ± 0.12 | 2.54 ± 0.18
17 | YCKTSDGRVVPESQCQMETKPLAI [ADAMTSL2] |  |  | 3.94 ± 0.33 | 4.32 ± 0.11
18 | QLRKQKKKTGKSSTTALGDKQRKA [ELOA2] |  |  | 4.73 ± 0.51 | 4.82 ± 0.39
19 | PDDKLTLFCEVSVVQDSVNISGHT [SPOPL] |  |  | 2.47 ± 0.52 | 2.81 ± 0.49
20 | HSGQVTILKLEQENCTLVTTFRGH [WDFY2] |  |  | 2.35 ± 0.26 | 2.29 ± 0.28
21 | CVARPGTPSLLRFALASLLQSAPD [ZSWIM9] |  |  | 2.19 ± 0.18 | 2.24 ± 0.31
22 | TPLASSTDHQTPPTSPVQGTTPQI [HDAC6] |  |  | 5.17 ± 0.16 | 5.03 ± 0.16
23 | ALVQEKIQKRNQRQSGDRRQLPPP [WAS] |  |  | 4.31 ± 0.24 | 4.59 ± 0.086

Row | Sequence | protein stability index (treatment: DMSO, c terminus: native) | protein stability index (treatment: MLN4924 1 uM, 8 h, c terminus: native) | protein stability index [1] | protein stability index [2]
24 | NCPGQYTFSMPSDSHVSSCSEDWV [CD69] |  |  | 3.8 ± 0.21 | 4.06 ± 0.22
25 | HALATRASDYSKKSNVLKLKTADW [PSD2] |  |  | 3.13 ± 0.18 | 3.17 ± 0.17
26 | GQTVTIWAANAGVTASPPTDLIWK [LMNB1] |  |  | 2.37 ± 0.35 | 2.34 ± 0.32
27 | PSLSTITSTSSSITSSIPDTERLD [DVL3] |  |  | 5.23 ± 0.17 | 5.28 ± 0.16
28 | DGPGGNLAHAFQPGPGIGGDAHFD [MMP1] |  |  | 4.95 ± 0.3 | 4.9 ± 0.14
29 | FRPYFTIHDSEFKEYTTRTQAPPS [DENND6A] |  |  | 2.55 ± 0.23 | 2.71 ± 0.27
30 | SVPIDLQKVDQFDPFTVPTISFIC [PRIM1] |  |  | 2.55 ± 0.44 | 2.48 ± 0.74
31 | HPSGHWATCRLCGEQVGRGPGFHA [ZBED3] |  |  | 2.52 ± 0.069 | 3.05 ± 0.29
32 | MWPPDPDPDPDPEPAGGSRPGPAV [CMTM3] |  |  | 5.02 ± 0.062 | 5.124 ± 0.016
33 | GGVGYGDSKDCILEPLSLPESPGG [ZNF277] |  |  | 4.43 ± 0.37 | 4.98 ± 0.19
34 | VENKEKDSNMPHFQTLQAIVSHFQ [CEP70] |  |  | 2.89 ± 0.27 | 3.18 ± 0.36
35 | KCLLYCNGVLEPLYLCPNGARCAT [SLC25A39] |  |  | 2.24 ± 0.11 | 2.11 ± 0.27
36 | IPQGICPVGRSWHSLTPVSSDHLF [KLHDC2] |  |  | 2.68 ± 0.28 | 2.52 ± 0.21
37 | APDGSYFAWSQGHRTVKLVPWSQC [WSB1] |  |  | 2.57 ± 0.47 | 2.8 ± 0.42
38 | FYQSPYDSEQVPQALRRLRPRTRK [NCF4] |  |  | 4.63 ± 0.37 | 4.68 ± 0.3
39 | IPAAVLAGFTGSGPIQLWQFLLEL [ETS2] |  |  | 2.69 ± 0.62 | 2.5 ± 0.25
40 | KHRIRRVLIVDWDVHHGQGTQFTF [HDAC6] |  |  | 3.35 ± 0.42 | 3.14 ± 0.83
41 | VLGIQVKCFHEIITIGYRVYHSYD [CDS1] |  |  | 3.25 ± 0.25 | 3.04 ± 0.17
42 | NYMKILLKVGGILVMPIEDQLTQI [PCMTD1] |  |  | 3.08 ± 0.75 | 2.88 ± 0.8
43 | SVVNVGCGPAEERVLLTGLHAVAD [YPEL3] |  |  | 3 ± 0.78 | 3.29 ± 0.7
44 | NRQCLCSAESMVEYGTCMCLVKGI [SPRY1] |  |  | 3.82 ± 0.28 | 3.83 ± 0.26
45 | KVHTVPKPGKGADLSKPPCRKAKE [ATE1] |  |  | 4.94 ± 0.24 | 5.125 ± 0.046
46 | MACHRCLVYLGDLSRYQNELAGVD [SMG5] |  |  | 2.64 ± 0.7 | 2.54 ± 0.55

Row | Sequence | protein stability index (treatment: DMSO, c terminus: native) | protein stability index (treatment: MLN4924 1 uM, 8 h, c terminus: native) | protein stability index [1] | protein stability index [2]
47 | TLSNPQMSLEGTEKASWLGEQPQF [ELF3] |  |  | 4.26 ± 0.34 | 4.21 ± 0.37
48 | APAPAPEEWLDILGNGLLRKKTLV [FKBP8] |  |  | 3.19 ± 0.32 | 3.24 ± 0.27
49 | GKTKKDYQEASNLEQFVTRFLLKE [NECAB1] |  |  | 2.97 ± 0.3 | 3.36 ± 0.37
50 | SGPEGNLNQIVTEPDANFPQFLHE [FAM104B] |  |  | 4.81 ± 0.15 | 4.93 ± 0.16
51 | DIGAVYSHRPNQHNTVKLGAFQAQ [PRIM1] |  |  | 3.11 ± 0.41 | 3.19 ± 0.45
52 | LVTGLAIEEACYAQTIPTKDRLEG [AUH] |  |  | 3.02 ± 0.34 | 3.13 ± 0.27
53 | DEASAATPPSSRRVWSPPRVHKVE [ZBTB22] |  |  | 5 ± 0.073 | 4.99 ± 0.15
54 | KCKSTLSPPEASPGPPAAPRARRR [PWWP2B] |  |  | 5.19 ± 0.12 | 5.34 ± 0.26
55 | VRYNRVGILRRILRTLRDFPAEER [ANKRD9] |  |  | 2.4 ± 0.16 | 2.6 ± 0.56
56 | MRYLRNHCLDQVGLFRKSGVKSRI [DLC1] |  |  | 2.64 ± 0.36 | 2.64 ± 0.37
57 | YPEDSSWAAKAPGASSREEPPEEP [SPDEF] |  |  | 4.21 ± 0.43 | 4.64 ± 0.51
58 | DIDLSLYIPRDVDETGITVASLER [ZC3H15] |  |  | 3.19 ± 0.28 | 3.5 ± 0.23
59 | PQVPPSQPLRPWAGGDVPHKTHQA [DYRK1B] |  |  | 4.41 ± 0.32 | 4.63 ± 0.21
60 | EEAEWESINVLLMMHGLKPLSLVK [CEP70] |  |  | 2.36 ± 0.66 | 2.31 ± 0.35
61 | QHCRQSLASRIRSNKKMLLLVGGL [KLHL14] |  |  | 2.54 ± 0.83 | 2.24 ± 0.43
62 | KGKKLYPVVSAVWGHCEVTMRYIN [SPSB4] |  |  | 2.43 ± 0.82 | 2.65 ± 0.6
63 | PLPFPGPFPAGPLAVAGGPRKTAA [ESRRA] |  |  | 4.43 ± 0.17 | 4.25 ± 0.14
64 | EGCKSFFKRSVRRNLSYTCRANRN [NR2F2] |  |  | 3.34 ± 0.36 | 3.52 ± 0.31
65 | LDPDSKENAQIIYSLAEDTIQGVP [PCDHGA10] |  |  | 4.64 ± 0.15 | 4.56 ± 0.23
66 | VLDCRPYLAFAASNVRGSLNVNLN [DUSP5] |  |  | 2.19 ± 0.34 | 1.99 ± 0.39
67 | FYQAVRDLLPVWLLEDMRASEAFH [ANKRD9] |  |  | 2.85 ± 0.47 | 2.59 ± 0.57
68 | RDSESTRHDSETEDMLWDDLLHGP [PHTF1] |  |  | 5.49 ± 0.31 | 5.4 ± 0.2
69 | FSQKHFPEVVQHEEFILLSQGEVE [KLHL12] |  |  | 3.44 ± 0.81 | 3.45 ± 0.33

Row | Sequence | protein stability index (treatment: DMSO, c terminus: native) | protein stability index (treatment: MLN4924 1 uM, 8 h, c terminus: native) | protein stability index [1] | protein stability index [2]
70 | VLEQFLTILPQEIQSRVQELHPES [ZNF263] |  |  | 2.56 ± 0.31 | 2.53 ± 0.39
71 | LMTCEMLNRRNGSLRIALSEHLKQ [EDNRA] |  |  | 2.71 ± 0.17 | 2.72 ± 0.26
72 | VLDELTLARADLEMQIENLKEELA [KRT17] |  |  | 3.04 ± 0.29 | 3.1 ± 0.37
73 | YQVAALQGDLASLRAELQGHHAEK [TNFSF13B] |  |  | 3.71 ± 0.14 | 3.88 ± 0.099
74 | PKDIAKLVPKTHLMSESEWRNLGV [CKS1B] |  |  | 2.8 ± 0.32 | 2.85 ± 0.34
75 | DLSMDGLFGTIAYLPPERIREKSR [RIPK4] |  |  | 3.58 ± 0.27 | 3.66 ± 0.34
76 | ENVLHFKAQGHGAKGDNVYEFHLE [HACD3] |  |  | 3.57 ± 0.3 | 3.79 ± 0.17
77 | VTLNFNVPGEFKQDVTVVGSAGRL [GFOD1] |  |  | 2.23 ± 0.74 | 2.15 ± 0.37
78 | RRLYEKKIFEYETQRRRLSPPSSS [EMD] |  |  | 3.25 ± 0.26 | 3.35 ± 0.48
79 | DIETACKLLNITADPMDWSPSNVQ [SPDEF] |  |  | 2.75 ± 0.42 | 2.77 ± 0.17
80 | NRSLAEACSEGDVNAVRKLLIEGR [ANKRD17] |  |  | 4.01 ± 0.26 | 4.12 ± 0.27
81 | PLLLKEILKHTPKEHPDVQLLEDA [NET1] |  |  | 3.82 ± 0.41 | 4.06 ± 0.21
82 | MMMMGPKEEEQSCEYETRLPGNHS [ZNF232] |  |  | 4.51 ± 0.48 | 4.64 ± 0.4
83 | DWEAVPQRKLKPPIVPKIAGDGDT [PRKX] |  |  | 4.9 ± 0.21 | 4.87 ± 0.24
84 | RSPRAGAGALLRLPSERLDFSMAE [PRPH] |  |  | 4.17 ± 0.17 | 4.21 ± 0.29
85 | TSRGKLGGQDSFESIESYDSCDRL [ETS1] |  |  | 4.62 ± 0.16 | 4.68 ± 0.13
86 | LSIQLQPKETQPFPKSEQVYLHFL [ZNF232] |  |  | 2.4 ± 0.25 | 2.52 ± 0.35
87 | LREKLLEAEQSLRNLEDIHMSLEK [TEKT4] |  |  | 3.03 ± 0.52 | 3.3 ± 0.63
88 | AATPRTNSVISVCSSSNLAGNDDS [DLC1] |  |  | 5.08 ± 0.3 | 5.17 ± 0.083
89 | PEVLDRESRDRPSCAPSASIPKLK [PWWP2B] |  |  | 5.04 ± 0.21 | 5.25 ± 0.15
